B1: piperine synthase (PipBAHD2) (Piper nigrum) (protein)
chain: MAPSSQLEFNVVRKQPELLPPAEPTPFEWKELSDIDDQDGLRLHISGFFIYPPSTMSNVGRDNVARDIRLGLSKAMVFYYPLAGRIREGPNRKLSVECTGEGIMYCEADADVRLEQFGDIGALSMPFPFMDKVMFETVDDGILGTPLMYFQSTRFICGGIVIAGCYNHAIADGLGFYMFMAAAAQLARGAASPTPLPVWQRERLLSRVPPRVTFIHHEYIHDTPKTETANPLDNEPWPLHSIFFTRVDVAALRAQLPGHLRKSATSFEIISACLWRCRTAALRFAPDELSRLIIAVNARTKFGPPLPQGYYGNSIMLPMVVSEAGKLVLSGLGYAVELVIEAKGKVTEEYVKSVADYLVLNGRPHYVVTNTYLVSDLRQLVEMSKFDWGWGKPAYVGPADVGENAISFLATLKNGEEEGVVVPIRLPESAVGRFKSEVSKMVSFGCLEDVKPNRDGYLSRM
notes: full-length cDNA from immature fruits, N-terminal His10 tag (pET-16b), E. coli LEMO21, IMAC
B2: piperamide synthase (PipBAHD1) (Piper nigrum) (protein)
chain: MASSQLEFNVERKQPELLGPAEPTPYELKELSDIDDQDGVRLFLTAIFIYPPPTKTSMPTRKTDPASDIRRGLSKAMVYYYPFAGRIREGPNRKLSVDCTGEGIVFCEADADIRLDGLGDVEVLRPPYPFIDKMTLGEGSAILGAPLVYVQVTRFACGGFIITGRFNHVMADAPGFTMFMKAAADLARGATVPMPLPVWERERYRSRVPPRVTFAHHEYMHVDDPPPRPTSEPWSLHSAFFTKADVATLRAQLPADLRKAATSFDIITACMWRCRVSALQYGPDEVVRLIVAVNSRTKFDPPLTGYYGNGLMLPAAVTEAGKLVGSDLGYAVELVREAKGKVTEEYVRSAADFLVLNGRVHFVVSNTFLVSDLRRLIDLANMDWGWGKAVSGGPVDVGENVISFLATSKNSAGEEGAVVPFCLPDSALGRFTSEVKKLVCFRPLENAAASNPDHGYMSRM
notes: as for B1

How the values were obtained:
Format in all cases: biochemical, Piper nigrum
[1] = substrate: CC(C)(COP(=O)(O)OP(=O)(O)OC[C@H]1O[C@@H](n2cnc3c(N)ncnc32)[C@H](O)[C@@H]1OP(=O)(O)O)[C@@H](O)C(=O)NCCC(=O)NCCSC(=O)/C=C/C=C/c1ccc2c(c1)OCO2; test: HPLC-UV/Vis and LC-MS of piperine (plus isomers) formation; details: co-substrate piperidine, pH 8.0, 30 mM Tris/HCl, 1 mM DTT
Excerpt: (§1) HPLC-UV/Vis and LC-MS of piperine (plus isomers) formation on piperine synthase (PipBAHD2)

[2] = substrate: C1CCNCC1; test: as above; details: co-substrate piperoyl-CoA, pH 8.0, 30 mM Tris/HCl, 1 mM DTT
Excerpt: as §1

[3] = substrate: CC(C)(COP(=O)(O)OP(=O)(O)OC[C@H]1O[C@@H](n2cnc3c(N)ncnc32)[C@H](O)[C@@H]1OP(=O)(O)O)[C@@H](O)C(=O)NCCC(=O)NCCSC(=O)/C=C/C=C/c1ccc2c(c1)OCO2; test: HPLC-UV/Vis and LC-MS of piperine isomer formation; details: co-substrate piperidine, pH 8.0, 30 mM Tris/HCl, 1 mM DTT
Excerpt: (§2) HPLC-UV/Vis and LC-MS of piperine isomer formation on piperamide synthase (PipBAHD1)

[4] = substrate: C1CCNCC1; test: HPLC-UV/Vis and LC-MS of piperine isomer formation; details: co-substrate piperoyl-CoA, pH 8.0, 30 mM Tris/HCl, 1 mM DTT
Excerpt: as §2

| Protein | Km [1] [mM] | kcat [1] [s⁻¹] | kcat/Km [1] [M⁻¹ s⁻¹] | Km [2] [mM] | Km [3] [mM] | kcat [3] [s⁻¹] | kcat/Km [3] [M⁻¹ s⁻¹] | Km [4] [mM] | kcat [4] [s⁻¹] | kcat/Km [4] [M⁻¹ s⁻¹] |
| --- | --- | --- | --- | --- | --- | --- | --- | --- | --- | --- |
| B1 | 0.342 ± 0.060 | 1.01 ± 0.12 | 2950 | 7.6 ± 0.5 | – | – | – | – | – | – |
| B2 | – | – | – | – | 0.196 ± 0.009 | 0.35 ± 0.01 | 1790 | 8.69 ± 3.6 | 0.27 ± 0.02 | 31.1 |

— publication PMC8032705, “Identification and characterization of piperine synthase from black pepper, Piper nigrum L” (Communications Biology, 2021)
